The text below walks through data of PMC6778522.

This data set addresses PRC2 catalytic core (EZH2-EED-SUZ12 VEFS) (UniProt Q15910;O75530;Q15022 1-746;1-441;545-726). As to the kind of experiment: competition.

Sequence of PRC2 catalytic core (EZH2-EED-SUZ12 VEFS) (Q15910 whole entry, chain 1 of 3): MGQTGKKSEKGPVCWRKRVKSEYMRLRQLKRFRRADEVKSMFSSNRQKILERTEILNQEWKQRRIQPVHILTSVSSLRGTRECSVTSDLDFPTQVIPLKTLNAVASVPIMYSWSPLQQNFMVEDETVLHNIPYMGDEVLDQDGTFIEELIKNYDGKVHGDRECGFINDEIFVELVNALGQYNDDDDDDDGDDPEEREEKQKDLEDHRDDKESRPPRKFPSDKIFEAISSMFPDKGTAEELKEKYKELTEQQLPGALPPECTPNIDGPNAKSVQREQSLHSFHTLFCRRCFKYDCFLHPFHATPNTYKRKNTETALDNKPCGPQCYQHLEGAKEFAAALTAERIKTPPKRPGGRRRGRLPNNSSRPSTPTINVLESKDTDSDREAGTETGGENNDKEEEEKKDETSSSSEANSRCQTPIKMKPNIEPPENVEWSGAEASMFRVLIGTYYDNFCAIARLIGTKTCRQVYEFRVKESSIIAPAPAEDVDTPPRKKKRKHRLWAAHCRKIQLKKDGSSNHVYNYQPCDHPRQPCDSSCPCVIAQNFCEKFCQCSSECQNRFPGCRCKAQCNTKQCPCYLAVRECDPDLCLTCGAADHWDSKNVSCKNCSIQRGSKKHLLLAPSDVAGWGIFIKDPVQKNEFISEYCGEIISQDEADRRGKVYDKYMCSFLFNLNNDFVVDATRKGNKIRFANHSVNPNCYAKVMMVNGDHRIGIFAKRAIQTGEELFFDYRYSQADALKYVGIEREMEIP
Sequence of PRC2 catalytic core (EZH2-EED-SUZ12 VEFS) (O75530 whole entry, chain 2 of 3): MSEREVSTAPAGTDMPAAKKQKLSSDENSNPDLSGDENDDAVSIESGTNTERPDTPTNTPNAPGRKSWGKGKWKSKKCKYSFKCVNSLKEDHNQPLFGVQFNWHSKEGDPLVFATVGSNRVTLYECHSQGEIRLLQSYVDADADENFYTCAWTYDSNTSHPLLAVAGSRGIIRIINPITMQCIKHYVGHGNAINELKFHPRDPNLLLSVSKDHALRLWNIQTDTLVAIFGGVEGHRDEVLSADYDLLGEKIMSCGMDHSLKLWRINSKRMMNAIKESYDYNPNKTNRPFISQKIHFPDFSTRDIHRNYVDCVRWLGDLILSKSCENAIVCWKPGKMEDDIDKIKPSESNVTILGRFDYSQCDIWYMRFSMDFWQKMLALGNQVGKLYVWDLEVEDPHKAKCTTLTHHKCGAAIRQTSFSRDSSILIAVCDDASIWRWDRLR
Sequence of PRC2 catalytic core (EZH2-EED-SUZ12 VEFS) (Q15022 545-726, chain 3 of 3): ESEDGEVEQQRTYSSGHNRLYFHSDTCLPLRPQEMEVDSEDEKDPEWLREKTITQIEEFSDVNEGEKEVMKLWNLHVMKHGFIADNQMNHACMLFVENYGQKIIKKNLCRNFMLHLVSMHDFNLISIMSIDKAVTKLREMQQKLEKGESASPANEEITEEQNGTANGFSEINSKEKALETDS

Turning to CGGGGGUGGGGGGUGGGGGUGGGU (structured_RNA) [PIM1 G4 RNA competitor], the binding result is listed as “binds”.
